# Experimental data from the RNAGym collection of RNA variant scans (doi:10.1073/pnas.2313332121).
# Fewer inactive variants are shown than the library holds.
# B1: TPR 5TU (parent)
# chain: GGAUCUUCUCGAUCUAACAAAAAAGACAAAUCUGCCACAAAGCUUGAGAGCAUCUUCGGAUGCAGAGGCGGCAGCCUUCGGUGGCGCGAUAGCGCCAACGUUCUCAACUAUGACACGCAAAACGCGUGCUCCGUUGAAUGGAGUUUAUCAUG
# Variants of: B1
# Test: polymerase ribozyme fitness, log enrichment relative to wild type (log ratio); higher = more active; in vitro selection for triplet polymerase activity
# In short: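 Fitness measures genotype enrichment against wild-type enrichment on a logarithmic scale, with inverse-variance-weighted averaging of replicates. The logarithm is base 2, and genotypes were kept only with ≥10 input reads and ≥1 read per output in Illumina sequencing. The sequenced libraries came from one triplicate in vitro selection round, including frozen incubation at −7 °C, of PCR-built, transcribed mutant libraries of each subunit of a heterodimeric triplet polymerase ribozyme.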
row,Variant,polymerase ribozyme fitness (log ratio)
1,GGAUCUUCUCGAUCUAACAAAAAAGACAAAUCUGCCACAAAGCUUGAGAGGAUCUUCGGAUGCAGAGGCGACAGCCUUCGGUGGCGCGAUAGCGCCAACGUUCUCAACUAUGACACGCAAAGCGCGUGCUCCGUUGAAUGGAGUUUAUCAUG [C51G G71A A122G],≤ -4.2
2,GGAUCUUCUCGAUCUAACAAAAAAGACAAAUCUGCCACAAAGCUUGAGAGAAUCUUCGGGUGCAGAGGCGGCAGCCUUCGGUGGCGCGAUAGCGCCAACGUUCUCAACUAUGACACGCAAAACUCGUGCUCCGUUGAAUGGAGUUUAUCAUG [C51A A60G G124U],-1.75
3,GGAUCUUCUCGAUCUAACAAAAAAGACAAAUCUGCCACAAAGCUUGAGAGAAUCUUCGUAUGCGGAGGCGGCAGCCUUCGGUGGUGCGAUAGCGCCAAGGUUCUCAACUAUGGCACGCAGAACGCGGGCUCCGUUGAAUUGAGUUUAACAUG [C51A G59U A64G C85U C99G A113G A120G U127G G140U U148A],≤ -4.2
4,GGAUCUUCUCGAUCUAACAAAAAAGACAAAUCUGCCACAAAGCUUGAGAGGAUCUUCGGAUGCAGAGGCGGCAGCCUUCGCUGGGGCGAUAGCGCCAACGUUCUCAACUAUGACACGCAAAAUGCGUGCUCCGUUGAAUGGAAUUUAUCAUG [C51G G81C C85G C123U G143A],-3.82
5,GGAUCUUCUCGAUCUAACAAAAAAGACAAAUCUGCCACAAAGCUUGAGAGAAUCUUAGGAUGCAGAGGCGGCAGCCUUCGGUGGCGCGAUAGCGACAACGUUCUCAACUAUGACACGCAAAACGCAUGCUCCGUUGAAUGGAGUUUGUCAUG [C51A C57A C95A G126A A147G],≤ -4.2
6,GGAUCUUCUCGAUCUAACAAAAAAGACAAAUCUGCCACAAAGCUUGAGAGUCUCUUCGGAUGCAGAGGCGGCAGCCUUCGGUGGCGCGAUAGCGCCAACGUUCUCAACUAUGACACGCAAAACGCGUGCUCCGUUGAAUGGAGUUUAUCAUG [C51U A52C],-1.33
7,GGAUCUUCUCGAUCUAACAAAAAAGACAAAUCUGCCACAAAGCUUGAGAGAAUUUUCGGAUGCAGAGGCGGCAGCCUUCGGUGGUGCGAUAGCGCCAACGUUCUCAACUAUGACACGCAAAACGCGUGCUCCGUUGAAUGGAGUUUAUCAUG [C51A C54U C85U],-1.93
8,GGAUCUUCUCGAUCUAACAAAAAAGACAAAUCUGCCACAAAGCUUGAGAGAAUCUUCCGAUGCAGAGGCGGCAGCCUUCGGUGGCGCGAUAGCGCCAACGUUCUCAACUAAGACACGCAAAACGCGUGCUCCGUUGAAUGGAGUUUAUCAUG [C51A G58C U111A],≤ -4.2
9,GGAUCUUCUCGAUCUAACAAAAAAGACAAAUCUGCCACAAAGCUUGAGAGAAUCGUCGGAUGCAGAGGCGGCAGCCUUCGGUGGCGCCAUAGCGACAACGUUCUCAACUAUGACACGCCAAACGCGUGCUCCGUUGAAUGGAGUUUAUCAUG [C51A U55G G88C C95A A119C],≤ -4.2
10,GGAUCUUCUCGAUCUAACAAAAAAGACAAAUCUGCCACAAAGCUUGAGAGAAUCUUCGGAUGCAGAGGCGGCAGCCUUCGGUGCCGCGAUAGCGCCAACGUUCUCAACUAUGACACGCAAAACGCGUGCUCCGUUGAAUGGAGUUUAUCAUG [C51A G84C],-2.99
11,GGAUCUUCUCGAUCUAACAAAAAAGACAAAUCUGCCACAAAGCUUGAGAGAAUCUUCGGAUGCAGAGGCGGCAGCCUUCGGUGACGCGAUAGCGCCAACGUUCUCAACUAUGACACGCAAAACGCGUGCUCCGUUGAAUGGAGUUUAUCAUG [C51A G84A],-1.26
12,GGAUCUUCUCGAUCUAACAAAAAAGACAAAUCUGCCACAAAGCUUGAGAGAAUCUUCGGAUGCAGAGGCGGCAGCCUUCGGUGGCGCGAUAGCGCCAUCGUUCUCAACUAUGACACGCAAAACGGGUGCUCCGUUGAAUGGAGUUUAUCAUG [C51A A98U C125G],-0.926
13,GGAUCUUCUCGAUCUAACAAAAAAGACAAAUCUGCCACAAAGCUUGAGAGAAUCUUCGGAUGCAGAGGCGGCAGCCUUCGGUGGCGCGAUAGCGCCAACGCUCUCAACUAUGACACGCAAAAAGCGUGCUCCGUUGAAUGGAGUUUAUCAUG [C51A U101C C123A],-2.09
14,GGAUCUUCUCGAUCUAACAAAAAAGACAAAUCUGCCACAAAGCUUGAGAGGACCUUCGGAUGCAGAGGCGGCAGCCCUCGGUGGCGCGAUAGCGACAACGUUCUCAACUAUGACACGCAAAACGCGUGCUCCGUUGAAUGGAGUUUAUCAUG [C51G U53C U77C C95A],≤ -4.2
15,GGAUCUUCUCGAUCUAACAAAAAAGACAAAUCUGCCACAAAGCUUGAGAGAAUCUUCGGAUGCAGAGGCGGCAGCAUUCGGUGGCACGAUAGCGCCAACGUUCUCAACUAUGACACGCAAAACGCGUGCUCCGUUGAAUGGAGUUUAUCAUG [C51A C76A G86A],≤ -4.2
16,GGAUCUUCUCGAUCUAACAAAAAAGACAAAUCUGCCACAAAGCUUGAGAGGAUCUUCGGGUGCAGAGGCGGCGGCCUUCGGUGGCGCGAUAGCGCCAACGUUCUCAACUAUGACACGCAAAAGGCGUGCUCCGUUGAAUGGAGUUUAUCAUG [C51G A60G A73G C123G],-3.71
17,GGAUCUUCUCGAUCUAACAAAAAAGACAAAUCUGCCACAAAGCUUGAGAGAAUCUUCGGAUGCGGAGGCGGCAGCCUUCGGUGGCGAGAUAGCGCCAACGUUCUCAACUAUGACACGCAAAACGCGUUCUCCGUUGAAUCGAGUUUAUCAUG [C51A A64G C87A G128U G140C],≤ -4.2
18,GGAUCUUCUCGAUCUAACAAAAAAGACAAAUCUGCCACAAAGCUUGAGAGGAUCUUCGGAUGCAGAGGCGGCAGCCUUCGGUGGCGCGAUACCGCCAACGUUCUCAACUAUGACACGCAAAACGCGUGCUCCGUUGAAUGGAGUUUAUCAUG [C51G G92C],-2.71
19,GGAUCUUCUCGAUCUAACAAAAAAGACAAAUCUGCCACAAAGCUUGAGAGAAUCUUCGGAUGCAGAGGCGGCAGCGUUCGGUGGCGCCAUAGCGCCAACGUUAUCAACUAUGACACGCAAAACGAGUGCUCCGUUGAAUAGAGUUUAUCAUG [C51A C76G G88C C103A C125A G140A],≤ -4.2
